Results published in patent US20030032609A1 (Harvard, published 2003).

Molecular target: T1, aryl hydrocarbon receptor nuclear translocator (ARNT) (human, UniProt P27540 1-789, limits assumed)
T1 construct: also called hARNT
Assay: heterodimer formation by deletion mutant; method not named

T1 sequence (P27540 whole entry): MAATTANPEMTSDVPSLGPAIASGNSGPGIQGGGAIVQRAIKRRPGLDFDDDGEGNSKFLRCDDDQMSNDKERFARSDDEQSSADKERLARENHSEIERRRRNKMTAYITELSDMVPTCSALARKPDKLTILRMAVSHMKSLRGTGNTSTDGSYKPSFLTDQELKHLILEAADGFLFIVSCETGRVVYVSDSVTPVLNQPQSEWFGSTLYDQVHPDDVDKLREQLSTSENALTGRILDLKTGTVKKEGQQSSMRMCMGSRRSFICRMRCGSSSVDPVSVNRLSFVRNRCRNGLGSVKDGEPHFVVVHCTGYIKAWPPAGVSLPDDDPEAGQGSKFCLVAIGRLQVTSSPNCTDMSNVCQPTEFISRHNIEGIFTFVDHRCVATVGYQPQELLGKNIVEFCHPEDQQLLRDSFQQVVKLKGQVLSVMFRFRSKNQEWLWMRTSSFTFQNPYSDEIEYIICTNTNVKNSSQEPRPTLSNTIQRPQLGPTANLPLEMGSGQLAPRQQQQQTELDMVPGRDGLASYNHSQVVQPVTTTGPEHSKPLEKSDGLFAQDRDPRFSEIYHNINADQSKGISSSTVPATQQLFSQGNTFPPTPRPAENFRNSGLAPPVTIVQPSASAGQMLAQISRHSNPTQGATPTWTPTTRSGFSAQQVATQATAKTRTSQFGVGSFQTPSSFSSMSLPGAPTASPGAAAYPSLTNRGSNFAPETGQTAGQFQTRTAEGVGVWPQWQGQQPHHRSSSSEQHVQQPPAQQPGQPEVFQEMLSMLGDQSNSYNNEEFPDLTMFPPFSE

binding result: binds
B1: EPAS1 polypeptide lacking amino acids 486-639 of SEQ ID NO: 6 (other)
chain: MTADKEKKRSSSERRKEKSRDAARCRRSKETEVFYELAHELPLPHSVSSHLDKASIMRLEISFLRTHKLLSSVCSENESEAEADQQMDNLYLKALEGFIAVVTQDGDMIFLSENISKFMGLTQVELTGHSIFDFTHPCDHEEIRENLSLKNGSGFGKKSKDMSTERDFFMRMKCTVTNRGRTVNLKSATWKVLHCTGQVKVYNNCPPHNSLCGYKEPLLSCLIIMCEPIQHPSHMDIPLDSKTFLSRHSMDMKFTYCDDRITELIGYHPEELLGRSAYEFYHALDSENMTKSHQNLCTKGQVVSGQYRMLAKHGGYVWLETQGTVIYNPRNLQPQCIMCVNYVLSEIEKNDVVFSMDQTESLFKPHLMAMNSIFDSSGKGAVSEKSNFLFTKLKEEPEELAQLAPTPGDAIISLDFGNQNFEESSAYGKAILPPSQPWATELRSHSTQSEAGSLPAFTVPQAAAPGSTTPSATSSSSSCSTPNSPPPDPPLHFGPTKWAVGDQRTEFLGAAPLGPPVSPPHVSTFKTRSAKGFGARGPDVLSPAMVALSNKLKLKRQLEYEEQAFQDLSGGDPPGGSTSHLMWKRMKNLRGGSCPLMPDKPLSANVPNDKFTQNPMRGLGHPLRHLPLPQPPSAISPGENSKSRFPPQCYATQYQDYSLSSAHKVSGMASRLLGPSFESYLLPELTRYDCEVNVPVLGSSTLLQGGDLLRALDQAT
notes: Internal deletion as worded; The C-terminal end, 870, is derived from '1-690' plus '180 C-terminal amino acids'; also called dominant negative EPAS1 mutant
